The record followed here is the DeepSol protein solubility set.

This series in a line: soluble on expression in E. coli; label from the status in PepcDB or PDB records.
“MRLTGKQTWVFQNDIYVNATGTAVGPKEAEGPLGKKFDISYGDLHCGEENWELAERRLMSDSIQQAVQKGNIKTSQIDFFLAGDLLNQTVTANYVARKWGIPFLGMFSACATSMETLAVGSAFIDGGFANRVLATVSSHNATAERQFRYPTEYGGQKPGTANSTVTGAGSILISNEKSAIKITSATIGKVQDLGITNPLDMGAAMAPAAAHTIQQHFEDLRRSADDYDLIVTGDLSAVGTPIAKQLLLEEGYDLGHIYNDCGLMIYESSQEEVFAGGSGCACSAVVTYGHLLHEMQKGNLQRIFVVATGALLSPMMMQQKETIPTIAHGVVFERVKGELEHHHHHH”: the “soluble on expression in E. coli” value was “soluble”.
As for “MDGMTPNRLLDLAIQSLLSNESAAIQALEDIPRELFVPLFIAAFKGGHKNTLSAMVKVWPFYCLHMGSLRILEPQHELLKAIIENLPVHPAQTSAFWGPKLRILDLRQDTNCRITCPEVSTKSPSCFHSCIYSDSSITKIERQLCFINSGCKTLLPRPVELILDLFLDGSLIEKDFLILLMHKIEESLGFLHVCCRDLQIDKPCKCKCTLKFLDLQCVDQLSVDRGSLSDITSILGQMGHLESLTLSNVTFRSLRGKVFKIFLSHLQRMENLKELSFSSFRLKNHLDRVLRVLPPDLDFLYLPFCGLSYRDIKFMSQSPHVTHLKLLNLSNNLMYWDDFGPFHSVLSNLSGTLQHLEINHCHISDSAISALIPALIRCTHLRVLGFACNPITMPMLVNIMHHLTPMMELKYVIYPIPVHCYERWHFHGSLDRGKLAIKVLGLPVQAKYPRNGWSKAISSSDENIPKAQTDTIPTCSWSWSLSRLQSAVQPPRDNLGRWKDTYAERAGNAVHGAV”, the entry is “not soluble”.
As for “MGHHHHHHSHMGARMTRAFRNFNVEKRAEQEISKRKPSMAPKHPSTRSLLQEHLSQYPEIEEEVSRKDNKLLSLLRDVYVNSKDPVPSLPVKAIEPQQQPKEFRLPIGDQFDKNIKDIPKGKITVVEALTLLNNHKLSPETWTAEKIAQEYHLELEDVNSLLKYFVTFEVKIVPPEDRKAIQSK”, the entry is “not soluble”; as for “MGSDKIHHHHHHMAKINLIIAETDGAYLKGLVNYISSNFEDTFRITCFTNREYLEKYISSGRISDILLIKTDMFYEGLMKNSIKSIAILSEGGNMDEFNGLPVVKKYQPGEKLCREILNIYYNNNPEVAPCKEVKKQEGSIITLYSPVGGIGKSTIAIEMAKKLSDSNKKVLYLNLEDLQSTLVFFECSTSKNMSDFLYFIKERDENFKEVLKDIVLKDEESGINYFAPVDSVLDIEDLKVDDVKFMLQKLIEVNMYNYIIIDLSSTFNINYKTIFEMSSKIIVPIGQDKLSSVKLQNFLKQLDNLENFSFIQNKYKDNLETIIPHVLLREKKPIIQKIYYDEALESVSSLIYLKNRASTFLRCIDELIMKLL”, “not soluble”.
As for “MGHHHHHHSHMASVSSATFSGHGARSLLQFLRLVGQLKRVPRTGWVYRNVQRPESVSDHMYRMAVMAMVIKDDRLNKDPEAMKQITQLLPEDLRKELYELWEEYETQSSAEAKFVKQLDQCEMILQASEYEDLEHKPGRLQDFYDSTAGKFNHPEIVQLVSELEAERSTNIAAAASEPHS”, the entry is “soluble”; as for “MIYRFTIISDEVDDFVREIQIDPEATFLDFHEAILKSVGYTNDQMTSFFICDDDWEKEKEVTLEEMDDNPEMDSWIMKETTISELVEDEKQKLLYVFDYMTERCFFIELSEIITGKDMNGAKCTKKSGDAPPQTVDFEEMAAASGSLDLDENFYGDQDFDMEDFDQEGFDIGGNAGGSYEEEKFLEHHHHHH”, “soluble”; as for “MGSDKIHHHHHHMVKGLRQLNNRVDILSLPGAEPEVEEAKAIDEKVNQPPTKKSSFSILSDLTKHVPEFVFELFELAFNLIAVIRLRKTVKEKNITLIYERYSLFMFASVWWAKRHNLPIVLEINDSCQVQRVRSLTFKKLAAKIEGWIFKNATGLVFISTRFKEVAEQAYGEISNSVVSPNGADLDKFIIDETSGLALRSKLGVENKIVLGYVGAFVHWHGIDWFVDLACQKLKETPELVLLLVGDGVAFEGIKKRVIEAGVESQVILPGKVPHHEVSSFLSAMDLGILPDSNDYGSPMKLFEFMAMGKGMIAPDFSPIAEVVQDNATSWLFPASNKQACIDKVFEIVNDREAHQEVGKKARAYIENERQWKHNAEQLLSLVTAREKA”, “not soluble”.
Consider “RMASVWQRLGFYASLLKRQLNGGPDVIKWERRVIPGCTRSIYSATGKWTKEYTLQTRKDVEKWWHQRIKEQASKISEADKSKPKFYVLSMFPYPSGKLHMGHVRVYTISDTIARFQKMRGMQVINPMGWDAFGLPAENAAVERNLHPQSWTQSNIKHMRKQLDRLGLCFSWDREITTCLPDYYKWTQYLFIKLYEAGLAYQKEALVNWDPVDQTVLANEQVDEHGCSWRSGAKVEQKYLRQWFIKTTAYAKAMQDALADLPEWYGIKGMQAHWIGDCVGCHLDFTLKVHGQATGEKLTAYTATPEAIYGTSHVAISPSHRLLHGHSSLKEALRMALVPGKDCLTPVMAVNMLTQQEVPVVILAKADLEGSLDSKIGIPSTSSEDTILAQTLGLAYSEVIETLPDGTERLSSSAEFTGMTRQDAFLALTQKARGKRVGGDVTSDKLKDWLISRQRYWGTPIPIVHCPVCGPTPVPLEDLPVTLPNIASFTGKGGPPLAMASEWVNCSCPRCKGAAKRETDTMDTFVDSAWYYFRYTDPHNPHSPFNTAVADYWMPVDLYIGGKEHAVMHLFYARFFSHFCHDQKMVKHREPFHKLLAQGLIKGQTFRLPSGQYLQREEVDLTGSVPVHAKTKEKLEVTWEKMSKSKHNGVDPEEVVEQYGIDTIRLYILFAAPPEKDILWDVKTDALPGVLRWQQRLWTLTTRFIEARASGKSPQPQLLSNKEKAEARKLWEYKNSVISQVTTHFTEDFSLNSAISQLMGLSNALSQASQSVILHSPEFEDALCALMVMAAPLAPHVTSEIWAGLALVPRKLCAHYTWDASVLLQAWPAVDPEFLQQPEVVQMAVLINNKACGKIPVPQQVARDQDKVHEFVLQSELGVRLLQGRSIKKSFLSPRTALINFLVQD”, for which the “soluble on expression in E. coli” value is given as “soluble”.
In the case of “GSYAEGQKKRRNTLHEFKKSAKTTLTKEDPLLKIKTKKVNSADECANRCIRNRGFTFTCKAFVFDKSRKRCYWYPFNSMSSGVKKGFGHEFDLYENKDYIRNCIIGKGGSYKGTVSITKSGIKCQPWNSMIPHEHSFLPSSYRGKDLQENYCRNPRGEEGGPWCFTSNPEVRYEVCDIPQCSEV” it was “soluble”.
In the case of “MDNFMDYIYRDFHIMQQTYATLVSVNNKIQIQTDKYSDNITSRQYMTILAIFHLPEDETTLNNIAKKLGTTKQNIKQIINILEGKGYVQTMPSKQDKRAINVSVTKEGWQVAESYAEKSFELFGDIFNDFSVEEMKILWMLLKKLYRFDGEEQDGFEEDANPSGELTEEQIEMAEAFARRRREKYGSK” it was “not soluble”; in that of “MAEETPPIVELAEWFQTPPGQYVLAWEQAQFDEAVADIFGYYAWQVGLAEPNLLRANRMPFKAWVGAGVPPPELAQGWQACVAAAPEALPFESQSVDLLVLPHAFECAEAPHLVLREVERVLVPEGRVVISGFNPWSLWGARNLMPGMEAWLPLPLSAQVALPRLKDWFKLLSFEVERGRFGCYAPACRTDKWLRRWRFMERYGQRWWGLGGAVYVVTATKKVAAMRLIGPAWKTRRKRAQAASVVVNRQADDPGRLEHHHHHH”, “not soluble”; in that of “MGSDKIHHHHHHMIISASRRTDIPAFYSQWFFNRIKEGYVLVPNPFNPKMISKVSLHPAVIDCIVFWTKNPAPMIDKLDHLQDYKYYFQFTLNPYGEKLENNLPSVNKRIDIFKRLSDKIGKEKVIWRYDPILTNEEYDVSFHKEAFAQIAYGLKDHTEKCMLGFIDHYQHIRTAVGQFNIQPLRKEEIEEIAVSFRNTINEYPAIQLDTCTSKVDLRHLGIPAGLCIDKELIERITGYPLLAKKDKNQRNVCNCIESIDIGTYESCLNGCIYCYAIKGNYNSVEYNTKKHDRNSPLLIGHPAEDDVVKEREMKSLRNNQYSLF”, “not soluble”.
For the sequence “MKYIVAVNASPRSGWNTSQLVEAAAKGAKEAGATVDIIDLYKLEPFQGCISCFGCKLPRTFGRCVSKDGLSEVLDKIRKADGLILGSPNYLGNLTAGFRALYERLIFQSLTYNKERPNCNEHMIPVLLITTSNCDESIYDKIGYTSMLEGYKQMLERFVGPLEHHHHHH”, the “soluble on expression in E. coli” value is on record as “not soluble”.
